Measured values published in patent US20250313631A1 (HUMMINGBIRD BIOSCIENCE PTE, published 2025).

T1: mouse VISTA expressed on cells (mouse, UniProt Q9D659 33-308)
T1 construct: whole, on cells; also called murine VISTA on transfected cells; VISTA on mouse CD11b+ myeloid cells
T1 sequence (looked up): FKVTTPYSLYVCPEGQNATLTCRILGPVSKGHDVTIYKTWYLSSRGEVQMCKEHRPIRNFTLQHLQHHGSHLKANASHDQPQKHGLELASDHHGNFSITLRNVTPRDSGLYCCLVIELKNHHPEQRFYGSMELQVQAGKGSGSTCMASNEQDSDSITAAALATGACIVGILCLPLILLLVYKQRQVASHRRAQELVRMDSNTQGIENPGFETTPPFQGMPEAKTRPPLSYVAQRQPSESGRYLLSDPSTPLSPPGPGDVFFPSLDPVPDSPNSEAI

T2: rat VISTA expressed on cells (rat, UniProt A0ABK0L5H3 33-310)
T2 construct: whole, on cells; also called rat VISTA on HEK293T cells; VISTA on rat CD11b+ myeloid cells
T2 sequence: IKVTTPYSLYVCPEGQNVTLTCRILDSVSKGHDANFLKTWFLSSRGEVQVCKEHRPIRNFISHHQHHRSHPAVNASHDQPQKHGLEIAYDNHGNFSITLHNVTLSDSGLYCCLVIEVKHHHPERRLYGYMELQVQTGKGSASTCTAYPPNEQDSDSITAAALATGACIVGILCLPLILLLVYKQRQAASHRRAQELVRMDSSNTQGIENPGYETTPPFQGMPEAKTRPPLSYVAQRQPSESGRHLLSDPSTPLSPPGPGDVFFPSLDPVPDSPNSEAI

T3: recombinant rat VISTA (His-tagged) (rat, UniProt A0ABK0L5H3 33-192)
T3 sequence: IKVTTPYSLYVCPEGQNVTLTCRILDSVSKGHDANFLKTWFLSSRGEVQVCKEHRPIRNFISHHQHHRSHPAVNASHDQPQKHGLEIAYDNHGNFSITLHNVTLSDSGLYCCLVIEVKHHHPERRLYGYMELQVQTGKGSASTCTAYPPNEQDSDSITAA

T4: human B7H3 (human, UniProt Q5ZPR3 29-461, limits assumed)
T4 construct: also called CD276
T4 sequence (looked up): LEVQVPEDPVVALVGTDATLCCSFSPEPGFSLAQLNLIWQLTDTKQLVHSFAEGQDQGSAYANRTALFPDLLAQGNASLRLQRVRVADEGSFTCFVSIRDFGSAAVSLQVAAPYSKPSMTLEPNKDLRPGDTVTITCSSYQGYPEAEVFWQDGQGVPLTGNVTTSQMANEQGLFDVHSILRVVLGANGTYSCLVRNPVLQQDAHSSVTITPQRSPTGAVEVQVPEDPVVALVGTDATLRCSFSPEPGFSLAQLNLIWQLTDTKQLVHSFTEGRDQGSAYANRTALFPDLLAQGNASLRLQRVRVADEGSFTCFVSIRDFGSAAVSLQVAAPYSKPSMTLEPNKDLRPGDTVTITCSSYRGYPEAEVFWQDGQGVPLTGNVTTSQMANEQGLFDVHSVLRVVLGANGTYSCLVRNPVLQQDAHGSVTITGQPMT


Assays:
[1] = target: T5, recombinant human VISTA (His-tagged) (human, UniProt Q9H7M9 33-194); assay: antigen-binding ELISA; reference standard run with the day 0 samples; reference standard, run with the Day 0 samples
T5 construct: bought soluble protein (Sino Biological); also called hVISTA; human VISTA polypeptide

[2] = target: T6, human VISTA expressed on cells (human, UniProt Q9H7M9 33-311); assay: flow cytometry, endogenous VISTA on CD11b+ myeloid cells of PBMCs
T6 construct: also called HEK293 VISTA O/E; HEK293T or HEK293-6E cells overexpressing human VISTA

[3] = target: T1, mouse VISTA expressed on cells; assay: as above
[4] = target: T2, rat VISTA expressed on cells; assay: as above
[5] = target: T5, recombinant human VISTA (His-tagged); assay: antigen-binding ELISA; HMBD-002 10 mg/mL in F6, day 0
[6] = target: T5, recombinant human VISTA (His-tagged); assay: SPR (Biacore), VISTA-HIS captured, antibody as analyte, 1:1 model; SPR (Biacore), human VISTA
[7] = target: human PD-1 (human, UniProt Q15116 25-167); assay: ELISA, plate coated with human PD-1, antibody titrated
Chain of human PD-1 (Q15116 25-167 limits assumed): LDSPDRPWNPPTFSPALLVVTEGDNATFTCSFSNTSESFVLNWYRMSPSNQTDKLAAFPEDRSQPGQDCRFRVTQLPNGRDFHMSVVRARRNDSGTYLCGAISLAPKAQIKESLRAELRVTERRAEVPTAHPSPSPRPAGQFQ

[8] = target: T5, recombinant human VISTA (His-tagged); assay: antigen-binding ELISA; HMBD-002 10 mg/mL in F7, day 0
[9] = target: human C1q protein (human, UniProt P02745 23-245; P02746 28-253; P02747 29-245); assay: ELISA, plate coated with human C1q protein, detection with HRP anti-human Fc antibody
Chain of human C1q protein (P02745 23-245 limits assumed, chain 1 of 3): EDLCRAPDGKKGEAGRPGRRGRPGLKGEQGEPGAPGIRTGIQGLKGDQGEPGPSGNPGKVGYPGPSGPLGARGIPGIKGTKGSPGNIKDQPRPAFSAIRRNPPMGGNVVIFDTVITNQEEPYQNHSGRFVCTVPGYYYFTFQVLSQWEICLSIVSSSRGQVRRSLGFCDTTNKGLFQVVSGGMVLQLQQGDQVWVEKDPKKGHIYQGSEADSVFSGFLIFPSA
Chain of human C1q protein (P02746 28-253 limits assumed, chain 2 of 3): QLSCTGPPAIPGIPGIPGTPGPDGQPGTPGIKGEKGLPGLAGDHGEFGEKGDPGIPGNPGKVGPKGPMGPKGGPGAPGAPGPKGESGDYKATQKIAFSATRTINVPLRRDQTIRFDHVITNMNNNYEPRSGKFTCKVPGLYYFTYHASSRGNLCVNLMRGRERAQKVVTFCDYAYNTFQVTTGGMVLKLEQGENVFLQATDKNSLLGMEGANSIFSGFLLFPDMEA
Chain of human C1q protein (P02747 29-245 limits assumed, chain 3 of 3): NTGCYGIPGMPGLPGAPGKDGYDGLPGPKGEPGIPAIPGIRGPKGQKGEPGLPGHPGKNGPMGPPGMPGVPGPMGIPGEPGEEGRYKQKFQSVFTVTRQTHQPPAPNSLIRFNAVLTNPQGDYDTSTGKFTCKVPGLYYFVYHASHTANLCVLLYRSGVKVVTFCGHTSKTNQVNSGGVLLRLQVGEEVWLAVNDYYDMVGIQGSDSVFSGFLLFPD

[10] = target: T3, recombinant rat VISTA (His-tagged); assay: ELISA, VISTA-HIS protein coated; ELISA, rat VISTA-HIS
[11] = target: T7, human FcγRIII (CD16a) (human, UniProt P08637 17-208); assay: ELISA, plate coated with human CD16a (FcγRIII), detection with HRP anti-human Fc antibody
T7 construct: also called human CD16a
T7 sequence (P08637 17-208 limits assumed): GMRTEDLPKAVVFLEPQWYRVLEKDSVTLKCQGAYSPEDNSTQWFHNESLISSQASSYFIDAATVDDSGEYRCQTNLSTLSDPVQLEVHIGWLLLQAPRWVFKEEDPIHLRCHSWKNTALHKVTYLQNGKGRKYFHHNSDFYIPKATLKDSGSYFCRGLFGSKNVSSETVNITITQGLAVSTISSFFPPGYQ

[12] = target: T5, recombinant human VISTA (His-tagged); assay: BLI (Octet), 1:1 global fit, His-tagged human VISTA captured
[13] = target: T5, recombinant human VISTA (His-tagged); assay: BLI (Octet QK384): His-tagged human VISTA on anti-Penta-HIS tips, V4 1000 to 31.3 nM as analyte, global fit
[14] = target: human CTLA4 (human, UniProt P16410 36-162); assay: ELISA, target protein coated, A450 against log M of antibody
Chain of human CTLA4 (P16410 36-162 limits assumed): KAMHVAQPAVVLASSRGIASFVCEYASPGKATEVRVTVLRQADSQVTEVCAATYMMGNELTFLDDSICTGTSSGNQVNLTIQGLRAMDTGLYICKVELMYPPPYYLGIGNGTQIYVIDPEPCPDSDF

[15] = target: T4, human B7H3; assay: as above
[16] = target: T5, recombinant human VISTA (His-tagged); assay: as above

Binder | EC50 [1] [nM] | EC50 [2] [nM] | EC50 [3] [nM] | EC50 [4] [nM] | EC50 [5] [nM] | Kd [6] [nM] | binding result [7] | EC50 [8] [nM] | binding result [9] | EC50 [10] [nM] | binding result [11] | Kd [12] [nM] | koff [12] [s⁻¹] | kon [12] [M⁻¹ s⁻¹] | kon [13] [M⁻¹ s⁻¹] | binding result [14] | binding result [15] | EC50 (read off the curve) [16] [nM]
V4-C26 hIgG4 (antibody, human IgG4 (S228P)/kappa format; also called HMBD-002; HMBD-002-V4C26) heavy: not shown light: EIVLTQSPATLSLSPGERATLSCRASSSVGYIHWYQQKPGQAPRPIIYTTSNRATGIPARFSGSGSGTDNTLTISSLEPEDSAVYYCQQWSSYPPITFGGGTKLEVKRTVAAPSVFIFPPSDEQLKSGTASVVCLLNNFYPREAKVQWKVDNALQSGNSQESVTEQDSKDSTYSLSSTLTLSKADYEKHKVYACEVTHQGLSSPVTKSFNRGEC | 0.0307 | 108 | 111 | 48.6 | 0.0294 | 0.407 | no binding (tested: about 3e-8 M) | 0.0289 | no binding (tested: about 2e-7 M) | 0.00669 | no binding (tested: about 2e-7 M) | – | – | – | – | – | – | –
anti-VISTA clone 4M2-C12 IgG1 (antibody, mouse variable regions on human IgG1/kappa constant regions; also called V4; V4pr) heavy: not shown light: DIVITQTPAILSTSPGEKVTMTCRASSSVGYIHWYQQKPGSSPKPWIYATSNLASGVPARFSGSGSGTSNSLTITRVEAEDAATYYCQQWSSYPPITFGGGTKLEVKRTVAAPSVFIFPPSDEQLKSGTASVVCLLNNFYPREAKVQWKVDNALQSGNSQESVTEQDSKDSTYSLSSTLTLSKADYEKHKVYACEVTHQGLSSPVTKSFNRGEC | – | – | – | – | – | – | – | – | – | – | – | < 0.001 | < 1e-07 | 128000 | 45400 | no binding (tested: about 10^-7.5 M (log M axis)) | no binding (tested: about 10^-7.5 M (log M axis)) | ~0.01
